This note sets out measurements from article PMC10192046.

The assay concerns the target T1, interferon regulatory factor 3 (human (endogenous in THP-1)), Q14653.
T1 chain: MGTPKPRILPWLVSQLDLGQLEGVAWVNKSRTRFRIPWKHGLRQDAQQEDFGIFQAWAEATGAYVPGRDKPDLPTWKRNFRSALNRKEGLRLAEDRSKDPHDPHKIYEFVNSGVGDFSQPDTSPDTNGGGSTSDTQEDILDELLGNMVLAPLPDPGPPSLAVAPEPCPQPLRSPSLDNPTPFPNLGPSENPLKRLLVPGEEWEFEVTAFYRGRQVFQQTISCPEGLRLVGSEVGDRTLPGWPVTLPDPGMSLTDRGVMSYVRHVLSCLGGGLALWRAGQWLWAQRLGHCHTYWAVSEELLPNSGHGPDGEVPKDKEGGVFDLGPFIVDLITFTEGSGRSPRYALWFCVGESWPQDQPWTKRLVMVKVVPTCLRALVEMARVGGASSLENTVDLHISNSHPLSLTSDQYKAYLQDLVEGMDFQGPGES
Briefly: native gel or EMSA. The following applies: remark: other sources report otherwise. (In general: A gel shift assay detects complexes by their altered migration in electrophoresis.)

B1: interferon regulatory factor 3, Q14653 1-427 (natural protein)
chain: T1 chain
What is called stoichiometry N is a count of units in the complex or per binding partner. For B1, the stoichiometry N came out at 2.
